From article doi:10.1101/2023.02.13.525685

Key:
[1] = molecular target: RjoGlgAb (GT4 glycosyltransferase GlgAb from Rhodococcus jostii RHA1) (Rhodococcus jostii RHA1); experiment: SEC
[2] = molecular target: RjoGlgAc (GT4 glycosyltransferase GlgAc from Rhodococcus jostii RHA1) (Rhodococcus jostii RHA1); experiment: SEC

stoichiometry N [2]	Substance	stoichiometry N [1] [subunits]
–	RjoGlgAb (GT4 glycosyltransferase GlgAb from Rhodococcus jostii RHA1) (enzyme)	> 15
2	RjoGlgAc (GT4 glycosyltransferase GlgAc from Rhodococcus jostii RHA1) (enzyme)	–
